PMC7214386, “Plasmonic biosensors fabricated by galvanic displacement reactions for monitoring biomolecular interactions in real time” (Analytical and Bioanalytical Chemistry, 2020)

Tests used:
[1] = target: Protein A (Staphylococcus aureus) (UniProt P38507); test: LSPR (localized surface plasmon resonance, reflectance spectroscopy); PrA physically adsorbed on the nanostructured gold layer; analyte flown over in PBS pH 7.4, 0.57 ml/min; equilibrium shifts of three sensors fitted to a Langmuir isotherm
[2] = target: Protein A (Staphylococcus aureus) (UniProt P38507); test: LSPR (localized surface plasmon resonance, reflectance spectroscopy); PrA covalently coupled to the nanostructured gold layer via cysteamine/glutardialdehyde; analyte flown over in PBS pH 7.4, 0.57 ml/min; equilibrium shifts of three sensors fitted to a Langmuir isotherm
[3] = target: T1, asialofetuin (UniProt P12763 19-359, glycoprotein presenting terminal galactose residues); test: LSPR (localized surface plasmon resonance, reflectance spectroscopy); ASF physically adsorbed on the nanostructured gold layer; analyte in lectin buffer (10 mM HEPES, 150 mM NaCl, 0.1 mM CaCl2, pH 7.5); equilibrium shifts of three sensors fitted to a Langmuir isotherm; conditions: both partners purified
T1 construct: asialofetuin (desialylated fetuin), printed mass 48 kDa; Physically adsorbed on the gold sensor; also called ASF; source: bought: Sigma
T1 sequence (looked up): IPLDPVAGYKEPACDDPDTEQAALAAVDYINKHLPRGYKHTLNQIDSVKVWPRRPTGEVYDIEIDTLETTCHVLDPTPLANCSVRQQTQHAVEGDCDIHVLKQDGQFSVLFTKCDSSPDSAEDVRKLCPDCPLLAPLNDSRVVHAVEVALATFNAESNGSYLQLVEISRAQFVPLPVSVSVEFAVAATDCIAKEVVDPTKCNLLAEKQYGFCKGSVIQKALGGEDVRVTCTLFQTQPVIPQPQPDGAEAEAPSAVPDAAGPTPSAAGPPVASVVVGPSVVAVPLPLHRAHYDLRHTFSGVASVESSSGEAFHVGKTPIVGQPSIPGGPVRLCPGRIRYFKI

Row | Molecule | Kd [1] [µM] | Kd [2] [µM] | Kd [3] [µM]
1 | immunoglobulin G (IgG, 150 kDa) from rabbit (antibody) | 0.14 | 0.15 | –
2 | Erythrina cristagalli lectin (natural protein, UniProt P83410 1-239, looked up, lectin of the plant Erythrina cristagalli; printed mass 54 kDa; The printed 54 kDa probably means a dimer of the lectin chain; also called ECL; source: bought: Vector Laboratories via BIOZOL Diagnostica) VETISFSFSEFEPGNDNLTLQGAALITQSGVLQLTKINQNGMPAWDSTGRTLYTKPVHMWDSTTGTVASFETRFSFSIEQPYTRPLPADGLVFFMGPTKSKPAQGYGYLGVFNNSKQDNSYQTLAVEFDTFSNPWDPPQVPHIGIDVNSIRSIKTQPFQLDNGQVANVVIKYDAPSKILHVVLVYPSSGAIYTIAEIVDVKQVLPDWVDVGLSGATGAQRDAAETHDVYSWSFQASLPE | – | – | 0.49
